Assay results: patent US7563583B2, “Heregulin variants” (Genentech, Inc., priority 1997, dated 2009)

How the values were obtained:
[1] = biological target: T1, ErbB-3-Ig (Homo sapiens, UniProt P21860); assay: Phage ELISA of phage-displayed HRG-β1 variants, binding to ErbB-3-Ig
T1 construct: expressed the extracellular domain (ECD) of the ErbB-2, ErbB-3, or ErbB-4 receptor fused to a human IgG constant domain; made in house; host or cells: HEK-293 cells, secreted, Protein A purified
Protocol: To produce phage displaying the domains, mutagenesis reaction mixtures were electrotransformed into XL1-Blue™ cells (Stratagene, Inc., La Jolla, Calif.), according to the manufacturer's protocol. The transformed cells were then infected with 10^14 plaque-forming units (pfu) M13K07 helper phage (Promega Corp., Madison, Wis.). Phage stocks (about 10^14 phagemid/mL) were prepared by precipitating culture broths from the cells after 18-24 hours (h) of growth with 20% PEG(2000)/2.5 M NaCl, according to the method of Sambrook and Maniatis, Molecular Cloning a Laboratory Manual Cold Spring Harbor Press 429 (1989). […]
Serial dilutions of soluble ErbB-2/3-Ig (competitor) and a concentration of phage predetermined to give 60% saturation (without competitor) were added to the wells in 100 μL binding buffer. […] The amount of phage binding was determined by assaying horseradish peroxidase activity using o-phenylenediamine dihydrochloride) substrate solution (Sigma Chemical Company, St. Louis, Mo.). EC50 values were calculated as the concentration of soluble ErbB-2/3-Ig required to compete half of the phage off the plate.
Alanine-substituted variants were generated by site-directed mutagenesis according to Kunkel et al., Methods Enzymol. […] The affinities of the alanine-substituted variants for ErbB-3-Ig and ErbB-4-Ig was determined by phage ELISA as described in Example 1. […]

[2] = tested on: ErbB-2/3-Ig; assay: Inhibition of 125I-HRG binding by soluble HRG-β1 EGF variants; settings: ErbB-2/3-Ig versus ErbB-3-Ig homodimer
Protocol: The affinities of the soluble variants for ErbB-Ig were determined by measuring inhibition of ^125I-HRG binding to ErbB-2/3, -3 and -4 receptor-Ig fusions, as previously described in Example 1.

[3] = biological target: T1, ErbB-3-Ig; assay: Inhibition of 125I-HRG-β1 177-244 binding by soluble Trx-variant fusions; settings: soluble thioredoxin (Trx)-variant fusions; HRG-β1 = recombinant HRG-β1 177-244
Protocol: (§1) The affinities of the Trx-variant fusions for ErbB receptor-Ig fusions were determined by measuring inhibition of ^125I-HRG-β1 177-244 binding to ErbB-3-Ig and ErbB-4-Ig. Receptor fusions were coated on plates (Nunc Maxisorp C™ break-apart strip wells, Inter Med, Denmark) via anti-human IgG, as described in Example 1 for phage ELISA. Binding assays were carried out with a constant amount of ^125I-HRG-β1 177-244 (100-300 pM) and varying concentrations (100 pM-4 μM) of unlabeled Trx-variant fusion. Following incubation for 1-3 h at room temperature, plates were washed, and the amount of bound ^125I-HRG-β1 177-244 in each well was counted on a gamma counter (Isodata, ICN Biomedic Systems, Huntsville, Ala.). For the ErbB-3 binding assays, the blocking buffer was TBST (0.025 M Tris-HCl [pH 7.5], 0.15 M NaCl, 0.02% Tween 20™) containing 1% BSA; the binding buffer was RPMI 1640™ cell culture media (Gibco-BRL, Gaithersburg, Md.) containing 2 mM glutamine, 100 U/mL penicillin, 100 μg/mL streptomycin, 10 mM HEPES buffer (pH 7.2), 0.2% BSA; and the wash buffer was TBST. For the ErbB-4 binding assays, PBS containing 1% BSA was used as the blocking and binding buffers, and the wash buffer was PBS containing 0.05% Tween 20™.

[4] = biological target: T2, ErbB-4-Ig (Homo sapiens, UniProt Q15303); assay: as above; settings: soluble thioredoxin (Trx)-variant fusions; HRG-β1 = recombinant HRG-β1 177-244
T2 construct: expressed the extracellular domain (ECD) of the ErbB-2, ErbB-3, or ErbB-4 receptor fused to a human IgG constant domain; made in house; host or cells: HEK-293 cells, secreted, Protein A purified
Protocol: as §1

T1 sequence (P21860 with tags, fused parts or gaps): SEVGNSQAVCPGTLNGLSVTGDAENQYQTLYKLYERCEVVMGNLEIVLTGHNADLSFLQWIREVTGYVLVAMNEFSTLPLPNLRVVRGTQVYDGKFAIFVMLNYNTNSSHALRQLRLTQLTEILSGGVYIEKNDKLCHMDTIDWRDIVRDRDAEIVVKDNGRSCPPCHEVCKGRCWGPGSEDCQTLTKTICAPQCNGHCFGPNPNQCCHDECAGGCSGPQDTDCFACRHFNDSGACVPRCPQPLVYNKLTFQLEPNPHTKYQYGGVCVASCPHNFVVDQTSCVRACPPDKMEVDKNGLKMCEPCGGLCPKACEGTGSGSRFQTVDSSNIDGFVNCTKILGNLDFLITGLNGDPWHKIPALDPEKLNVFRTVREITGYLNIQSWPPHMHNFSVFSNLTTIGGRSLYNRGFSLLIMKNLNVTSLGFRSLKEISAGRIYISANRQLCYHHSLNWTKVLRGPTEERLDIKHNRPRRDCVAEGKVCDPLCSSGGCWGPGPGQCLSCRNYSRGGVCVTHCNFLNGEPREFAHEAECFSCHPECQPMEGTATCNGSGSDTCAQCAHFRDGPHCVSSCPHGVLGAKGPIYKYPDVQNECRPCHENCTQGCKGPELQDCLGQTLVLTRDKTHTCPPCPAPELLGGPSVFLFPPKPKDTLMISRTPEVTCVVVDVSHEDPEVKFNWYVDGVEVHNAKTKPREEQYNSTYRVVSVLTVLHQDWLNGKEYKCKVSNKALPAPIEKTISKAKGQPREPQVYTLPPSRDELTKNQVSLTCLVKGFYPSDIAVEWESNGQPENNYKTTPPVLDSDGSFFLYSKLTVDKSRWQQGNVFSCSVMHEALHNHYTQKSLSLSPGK
T2 sequence (Q15303 with tags, fused parts or gaps): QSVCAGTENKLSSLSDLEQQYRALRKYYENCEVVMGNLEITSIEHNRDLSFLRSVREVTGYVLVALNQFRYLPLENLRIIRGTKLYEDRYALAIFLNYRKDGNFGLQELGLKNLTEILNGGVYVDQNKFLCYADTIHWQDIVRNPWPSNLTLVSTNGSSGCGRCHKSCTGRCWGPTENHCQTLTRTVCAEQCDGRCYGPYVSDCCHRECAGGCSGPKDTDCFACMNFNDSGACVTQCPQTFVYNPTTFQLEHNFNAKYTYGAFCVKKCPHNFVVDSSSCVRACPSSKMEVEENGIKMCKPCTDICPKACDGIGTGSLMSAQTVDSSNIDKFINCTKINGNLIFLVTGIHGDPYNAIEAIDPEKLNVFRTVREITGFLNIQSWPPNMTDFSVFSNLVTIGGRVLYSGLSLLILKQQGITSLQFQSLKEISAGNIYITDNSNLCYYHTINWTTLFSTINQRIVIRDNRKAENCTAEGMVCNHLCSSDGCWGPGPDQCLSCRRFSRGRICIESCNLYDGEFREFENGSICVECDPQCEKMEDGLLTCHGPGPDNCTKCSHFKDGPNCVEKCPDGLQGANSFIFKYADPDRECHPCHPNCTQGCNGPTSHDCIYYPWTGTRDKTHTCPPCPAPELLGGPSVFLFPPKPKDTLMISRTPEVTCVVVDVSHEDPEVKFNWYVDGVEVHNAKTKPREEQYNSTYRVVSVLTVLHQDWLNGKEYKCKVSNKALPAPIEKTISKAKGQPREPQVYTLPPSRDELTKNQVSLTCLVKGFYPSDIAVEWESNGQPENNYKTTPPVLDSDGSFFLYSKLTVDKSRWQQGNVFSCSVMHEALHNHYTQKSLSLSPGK

Molecule: B10: HRG-β1 EGF library B variant: A183D, E184K, K185S, E186R, K187E, T188G, M226I (SHLVKCDKSREGFCVNGGECFMVKDLSNPSRYLCKCPNEFTGDRCQNYVIAS; left off: large carriers; small tags and cut ends) [Variant B10]
- increase in ErbB-3 receptor (ErbB-3-Ig) affinity over wild-type HRG-β1 EGF ([1]; phage ELISA): up to 26 fold

B1: HRG8: wild-type HRG-β1 177-228 (minimal EGF-like domain); on phage linked via (GGGS)3 to pIII 323, or soluble (protein)
chain: SHLVKCAEKEKTFCVNGGECFMVKDLSNPSRYLCKCPNEFTGDRCQNYVMASGGGSGGGSGGGSNSQMAQVGDGDNSPLMNNFRQYLPSLPQSVECRPFVFSAGKPYEFSIDCDKINLFRGVFAFLLYVATFMYVFSTFANILRNKES
- higher affinity for the 2/3-heterodimer versus the 3/3 homodimer [2]: approximately 100 fold

B2: R220: HRG-β1 variant with R220 mutated to alanine (protein)
chain: SHLVKCAEKEKTFCVNGGECFMVKDLSNPSRYLCKCPNEFTGDACQNYVMASFYKHLGIEFMEAEELY
modifications: left off: large carriers; small tags and cut ends
notes: HRG-β1 variant with R220 mutated to alanine
- Sol EC50, binding to the ErbB-3 receptor [3]: no binding
- Sol EC50, binding to the ErbB-4 receptor [4]: no binding

B3: HRG63: HRG-β1 EGF control variant in which HRG-β1 202-204 of HRG8 are deleted (protein)
chain: SHLVKCAEKEKTFCVNGGECFMVKDPSRYLCKCPNEFTGDRCQNYVMASGGGSGGGSGGGSNSQMAQVGDGDNSPLMNNFRQYLPSLPQSVECRPFVFSAGKPYEFSIDCDKINLFRGVFAFLLYVATFMYVFSTFANILRNKES
- Phage ErbB-3 EC50 (wt)/EC50 (mut) ([1]; relative to wild-type HRG-β1 EGF-phage in the same assay run, above 1 = higher affinity, ± SD of 2-4 duplicate runs): 1.1 ± 0.8
